Several values for one entry are separate records, joined by “and”; a condition that tells them apart may be missing. Equal values may be shown once.
T1: LRP6.E3-E4 fragment (biotinylated, His-tagged) (Homo sapiens (Human), UniProt O75581 629-1244, biotinylated (AviTag system))
T1 construct: BLI antigen from baculovirus-infected insect cells; also called LRP6.E3-E4 protein; not shown: His tag and AviTag
T1 sequence: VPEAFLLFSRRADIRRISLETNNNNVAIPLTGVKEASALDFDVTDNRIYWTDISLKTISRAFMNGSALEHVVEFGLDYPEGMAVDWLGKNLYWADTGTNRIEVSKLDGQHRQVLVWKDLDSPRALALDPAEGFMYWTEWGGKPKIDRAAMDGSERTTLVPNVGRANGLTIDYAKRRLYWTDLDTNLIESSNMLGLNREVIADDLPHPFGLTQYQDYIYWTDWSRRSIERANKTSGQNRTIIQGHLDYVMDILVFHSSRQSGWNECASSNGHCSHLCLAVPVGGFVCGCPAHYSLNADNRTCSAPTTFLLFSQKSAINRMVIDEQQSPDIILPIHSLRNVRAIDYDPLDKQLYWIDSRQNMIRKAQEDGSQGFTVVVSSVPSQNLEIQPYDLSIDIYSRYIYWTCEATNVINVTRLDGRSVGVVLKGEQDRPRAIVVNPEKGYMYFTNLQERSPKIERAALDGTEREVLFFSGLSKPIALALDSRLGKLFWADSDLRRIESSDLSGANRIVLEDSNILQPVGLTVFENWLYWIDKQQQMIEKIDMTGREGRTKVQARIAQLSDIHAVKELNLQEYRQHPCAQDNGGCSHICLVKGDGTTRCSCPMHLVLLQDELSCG

T2: LRP6 (human; form used in the assay not stated) (human, UniProt O75581 20-1253, limits assumed)
T2 construct: probably an E3-E4 fragment for SPR
T2 sequence: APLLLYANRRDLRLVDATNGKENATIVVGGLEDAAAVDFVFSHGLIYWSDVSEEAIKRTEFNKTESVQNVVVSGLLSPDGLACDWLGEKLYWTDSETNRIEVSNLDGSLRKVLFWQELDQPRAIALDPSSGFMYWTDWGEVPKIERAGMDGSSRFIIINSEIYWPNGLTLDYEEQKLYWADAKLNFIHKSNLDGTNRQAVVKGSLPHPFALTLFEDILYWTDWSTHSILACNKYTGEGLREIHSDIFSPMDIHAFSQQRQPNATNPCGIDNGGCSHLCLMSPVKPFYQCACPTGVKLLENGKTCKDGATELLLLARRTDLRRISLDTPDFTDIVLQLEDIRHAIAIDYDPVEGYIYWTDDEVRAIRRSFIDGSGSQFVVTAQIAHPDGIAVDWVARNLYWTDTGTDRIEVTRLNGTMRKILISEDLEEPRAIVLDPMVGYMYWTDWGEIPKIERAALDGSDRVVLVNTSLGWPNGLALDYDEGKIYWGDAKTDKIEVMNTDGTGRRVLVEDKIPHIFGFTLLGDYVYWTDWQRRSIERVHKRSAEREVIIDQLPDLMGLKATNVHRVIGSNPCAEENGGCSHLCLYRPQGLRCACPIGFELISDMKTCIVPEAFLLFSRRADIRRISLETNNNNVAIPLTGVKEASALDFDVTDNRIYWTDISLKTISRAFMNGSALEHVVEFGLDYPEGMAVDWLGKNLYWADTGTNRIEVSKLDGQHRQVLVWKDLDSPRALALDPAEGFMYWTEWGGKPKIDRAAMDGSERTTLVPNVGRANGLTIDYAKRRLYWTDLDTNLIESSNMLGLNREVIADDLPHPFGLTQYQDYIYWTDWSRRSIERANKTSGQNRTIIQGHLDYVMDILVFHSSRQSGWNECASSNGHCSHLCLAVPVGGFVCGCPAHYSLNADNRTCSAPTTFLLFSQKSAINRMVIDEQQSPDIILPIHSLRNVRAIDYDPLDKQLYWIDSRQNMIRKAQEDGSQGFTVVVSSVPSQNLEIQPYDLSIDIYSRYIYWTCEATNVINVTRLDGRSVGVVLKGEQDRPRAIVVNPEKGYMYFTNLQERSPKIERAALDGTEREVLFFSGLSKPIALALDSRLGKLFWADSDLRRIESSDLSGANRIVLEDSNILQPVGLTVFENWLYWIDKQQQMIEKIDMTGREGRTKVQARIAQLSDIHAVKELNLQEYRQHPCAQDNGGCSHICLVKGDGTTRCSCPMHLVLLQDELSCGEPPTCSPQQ

T3: His-tagged LRP6.E3-E4 protein (human, UniProt O75581 629-1244)
T3 construct: also called LRP6.E3-4-His; printed once as LRP3.E3-E4; not shown: His tag
T3 sequence: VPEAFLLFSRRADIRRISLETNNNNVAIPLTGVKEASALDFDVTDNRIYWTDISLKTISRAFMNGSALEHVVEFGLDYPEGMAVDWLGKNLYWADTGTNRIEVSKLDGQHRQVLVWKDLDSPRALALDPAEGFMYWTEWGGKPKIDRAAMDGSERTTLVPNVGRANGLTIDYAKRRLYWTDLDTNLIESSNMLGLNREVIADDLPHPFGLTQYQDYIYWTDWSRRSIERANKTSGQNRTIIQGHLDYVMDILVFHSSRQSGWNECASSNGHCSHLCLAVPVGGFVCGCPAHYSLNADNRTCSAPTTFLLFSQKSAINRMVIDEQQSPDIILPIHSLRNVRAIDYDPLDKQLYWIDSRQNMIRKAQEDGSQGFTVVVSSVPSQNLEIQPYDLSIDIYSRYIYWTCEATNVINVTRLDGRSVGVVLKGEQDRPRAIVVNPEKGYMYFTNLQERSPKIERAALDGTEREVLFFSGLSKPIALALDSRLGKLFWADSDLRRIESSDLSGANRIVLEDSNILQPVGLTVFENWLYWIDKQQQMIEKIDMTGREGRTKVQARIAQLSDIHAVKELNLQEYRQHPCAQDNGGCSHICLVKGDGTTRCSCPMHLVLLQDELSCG


What was measured:
[1] = molecular target: T1, LRP6.E3-E4 fragment (biotinylated, …); experiment: biolayer interferometry, immobilized LRP6 E3-E4 fragment; Wnt3a at 200 nM; association then dissociation phase
Description: Biolayer interferometry was performed as previously described (Bourhis et al., 2010). Briefly, biotinylated, His-tagged LRP6 proteins were purified from baculovirus-infected insect cells using the AviTag system (GeneCopoeia). Binding kinetics were measured on the Octet RED System (ForteBio) using Streptavidin High Binding FA Biosensors loaded with 20 μg/ml LRP6 protein.
In these assays, antibody binding to LRP6 protein was allowed to reach equilibrium, and the subsequent wavelength shift in the interference pattern is shown for association and dissociation phases of Wnt protein binding.

[2] = molecular target: T2, LRP6 (human; form used in the assay not …); experiment: SPR (BIAcore), full length IgG; LRP6 construct not stated; affinity-matured clone, full length human IgG
LRP6 on HEK293 cells = LRP6 on HEK293 cells (human, UniProt O75581 20-1613); experiment: cell-based or functional assay
LRP6.E1-E2-Fc = LRP6.E1-E2-Fc (human); experiment: ELISA
LRP6.E1-E2-Fc (human), sequence (chain, as listed by the source limits assumed): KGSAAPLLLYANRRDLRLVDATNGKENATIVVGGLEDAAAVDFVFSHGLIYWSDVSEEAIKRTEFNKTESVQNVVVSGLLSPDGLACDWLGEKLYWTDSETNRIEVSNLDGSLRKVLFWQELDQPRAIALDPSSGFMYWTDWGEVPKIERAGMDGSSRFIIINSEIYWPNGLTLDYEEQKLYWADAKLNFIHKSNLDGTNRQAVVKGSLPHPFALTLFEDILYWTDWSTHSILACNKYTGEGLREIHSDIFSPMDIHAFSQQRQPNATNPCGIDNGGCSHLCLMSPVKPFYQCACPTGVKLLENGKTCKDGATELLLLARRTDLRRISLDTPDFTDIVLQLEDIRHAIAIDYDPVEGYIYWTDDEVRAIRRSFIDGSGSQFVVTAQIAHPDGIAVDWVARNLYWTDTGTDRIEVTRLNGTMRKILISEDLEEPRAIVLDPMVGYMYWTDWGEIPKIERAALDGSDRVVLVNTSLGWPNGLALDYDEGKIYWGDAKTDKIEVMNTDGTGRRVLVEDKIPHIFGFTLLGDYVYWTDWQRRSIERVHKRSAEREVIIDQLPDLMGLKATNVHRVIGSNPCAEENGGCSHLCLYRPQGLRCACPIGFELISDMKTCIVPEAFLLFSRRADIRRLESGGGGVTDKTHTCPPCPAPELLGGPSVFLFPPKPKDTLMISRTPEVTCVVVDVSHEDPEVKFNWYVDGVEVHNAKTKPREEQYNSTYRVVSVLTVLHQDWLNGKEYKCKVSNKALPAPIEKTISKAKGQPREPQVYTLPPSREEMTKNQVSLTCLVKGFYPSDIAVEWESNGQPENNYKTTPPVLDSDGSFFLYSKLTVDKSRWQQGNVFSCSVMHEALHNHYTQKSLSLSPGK

LRP6.E3-E4-Fc = molecular target: T4, LRP6.E3-E4-Fc (human); experiment: ELISA
T4 construct: also called LRP6.E3-4-Fc
T4 sequence (chain, as listed by the source limits assumed): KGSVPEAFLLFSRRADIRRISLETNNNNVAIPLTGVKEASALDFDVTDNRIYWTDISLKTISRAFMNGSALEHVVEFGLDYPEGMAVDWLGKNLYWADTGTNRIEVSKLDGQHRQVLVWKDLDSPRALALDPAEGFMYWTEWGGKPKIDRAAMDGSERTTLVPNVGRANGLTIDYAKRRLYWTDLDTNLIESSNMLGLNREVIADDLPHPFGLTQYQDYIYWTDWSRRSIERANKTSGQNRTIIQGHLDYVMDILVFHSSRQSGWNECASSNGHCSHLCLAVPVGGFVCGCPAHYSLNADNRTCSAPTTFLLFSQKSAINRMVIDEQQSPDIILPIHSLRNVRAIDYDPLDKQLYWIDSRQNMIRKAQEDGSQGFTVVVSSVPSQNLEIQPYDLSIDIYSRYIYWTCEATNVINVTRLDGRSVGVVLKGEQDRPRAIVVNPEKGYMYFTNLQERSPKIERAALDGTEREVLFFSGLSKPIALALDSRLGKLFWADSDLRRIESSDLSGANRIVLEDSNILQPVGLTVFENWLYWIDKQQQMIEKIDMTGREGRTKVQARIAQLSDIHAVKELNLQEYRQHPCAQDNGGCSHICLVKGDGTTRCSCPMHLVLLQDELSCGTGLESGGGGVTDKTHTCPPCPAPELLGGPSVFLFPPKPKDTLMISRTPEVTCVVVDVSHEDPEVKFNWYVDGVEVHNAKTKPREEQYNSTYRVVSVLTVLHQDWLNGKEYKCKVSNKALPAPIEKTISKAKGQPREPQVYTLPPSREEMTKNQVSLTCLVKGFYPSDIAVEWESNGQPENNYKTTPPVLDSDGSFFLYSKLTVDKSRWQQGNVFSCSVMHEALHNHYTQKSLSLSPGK

[3] = molecular target: T3, His-tagged LRP6.E3-E4 protein; experiment: phage competition ELISA, phage-displayed clone

Row | Binder | binding result (LRP6.E1-E2-Fc) | binding result (LRP6.E3-E4-Fc) | other results
1 | Wnt3a (ligand, human, UniProt P56704 19-352, looked up, also called purified human Wnt3a) SYPIWWSLAVGPQYSSLGSQPILCASIPGLVPKQLRFCRNYVEIMPSVAEGIKIGIQECQHQFRGRRWNCTTVHDSLAIFGPVLDKATRESAFVHAIASAGVAFAVTRSCAEGTAAICGCSSRHQGSPGKGWKWGGCSEDIEFGGMVSREFADARENRPDARSAMNRHNNEAGRQAIASHMHLKCKCHGLSGSCEVKTCWWSQPDFRAIGDFLKDKYDSASEMVVEKHRESRGWVETLRPRYTYFKVPTERDLVYYEASPNFCEPNPETGSFGTRDRTCNVSSHGIDGCDLLCCGRGHNARAERRREKCRCVFHWCCYVSCQECTRVYDVHTCK |  |  | binding result [1]: binds
2 | YW211.31.57 antibody (antibody, human IgG1, kappa, V domains shown) VH: EVQLVESGGGLVQPGGSLRLSCAASGFTFTSYYISWVRQAPGKGLEWVAEISPYSGSTYYADSVKGRFTISADTSKNTAYLQMNSLRAEDTAVYYCALRARPPIRLYPRGSVMDYWGQGTLVTVSS VL: DIQMTQSPSSLSASVGDRVTITCRASQDVSTAVAWYQQKPGKAPKLLIYSASFLYSGVPSRFSGSGSGTDFTLTISSLQPEDFATYYCQQSYTLPTTFGQGTKVEIKR |  |  | Kd [2]: 270 pM; IC50, inhibition of signaling in Wnt3a-stimulated HEK293 cells (LRP6 on HEK293 cells): ~0.1 µg/ml and ~0.6 nM
3 | YW211.08 antibody (antibody, V domains shown) VH: EVQLVESGGGLVQPGGSLRLSCAASGFTFTDYWIHWVRQAPGKGLEWVAGISPDGGSTYYADSVKGRFTISADTSKNTAYLQMNSLRAEDTAVYYCARWSYISRYFSSVMDYWGQGTLVTVSS VL: DIQMTQSPSSLSASVGDRVTITCRASQDVSTAVAWYQQKPGKAPKLLIYSASFLYSGVPSRFSGSGSGTDFTLTISSLQPEDFATYYCQQSYTTPPTFGQGTKVEIKR | no binding | binds | 
4 | YW211.31.11 antibody (antibody, V domains shown) VH: EVQLVESGGGLVQPGGSLRLSCAASGFTFGFYYLSWVRQAPGKGLEWVAEISPYSGSTYYADSVKGRFTISADTSKNTAYLQMNSLRAEDTAVYYCALRARPPIRLHPRGSVMDYWGQGTLVTVSS VL: DIQMTQSPSSLSASVGDRVTITCRASQDVSTAVAWYQQKPGKAPKLLIYSASFLYSGVPSRFSGSGSGTDFTLTISSLQPEDFATYYCQQSYAIPTTFGQGTKVEIKR |  |  | binding result [3]: binds
5 | YW211.11 antibody (antibody, V domains shown) VH: EVQLVESGGGLVQPGGSLRLSCAASGFTFTNYDIHWVRQAPGKGLEWVASIYPAGGDTDYADSVKGRFTISADTSKNTAYLQMNSLRAEDTAVYYCARSPGWALRGAMDYWGQGTLVTVSS VL: DIQMTQSPSSLSASVGDRVTITCRASQDVSTAVAWYQQKPGKAPKLLIYSASFLYSGVPSRFSGSGSGTDFTLTISSLQPEDFATYYCQQSYTTPPTFGQGTKVEIKR | no binding | binds | 
6 | YW211.03 antibody (antibody, V domains shown) VH: EVQLVESGGGLVQPGGSLRLSCAASGFTFTGYWIHWVRQAPGKGLEWVGTISPAGGSTDYADSVKGRFTISADTSKNTAYLQMNSLRAEDTAVYYCARTDWRFHHAGEYAMDYWGQGTLVTVSS VL: DIQMTQSPSSLSASVGDRVTITCRASQDVSTAVAWYQQKPGKAPKLLIYSASFLYSGVPSRFSGSGSGTDFTLTISSLQPEDFATYYCQQSYTTPPTFGQGTKVEIKR | no binding | binds | 
7 | YW211.12 antibody (antibody, V domains shown) VH: EVQLVESGGGLVQPGGSLRLSCAASGFTFTGNDIHWVRQAPGKGLEWVGRIYPYGGYTDYADSVKGRFTISADTSKNTAYLQMNSLRAEDTAVYYCAKEVTYHLFDYWGQGTLVTVSS VL: DIQMTQSPSSLSASVGDRVTITCRASQDVSTAVAWYQQKPGKAPKLLIYSASFLYSGVPSRFSGSGSGTDFTLTISSLQPEDFATYYCQQSYTTPPTFGQGTKVEIKR | no binding | binds | 
8 | YW211.33 antibody (antibody, V domains shown) VH: EVQLVESGGGLVQPGGSLRLSCAASGFTFSGSSISWVRQAPGKGLEWVGVISPSSGATYYADSVKGRFTISADTSKNTAYLQMNSLRAEDTAVYYCARWPAGAFLGYYGMDYWGQGTLVTVSS VL: DIQMTQSPSSLSASVGDRVTITCRASQDVSTAVAWYQQKPGKAPKLLIYSASFLYSGVPSRFSGSGSGTDFTLTISSLQPEDFATYYCQQSYTTPPTFGQGTKVEIKR | no binding | binds | 
9 | YW211.31.62 antibody (antibody, human IgG1, kappa, V domains shown) VH: EVQLVESGGGLVQPGGSLRLSCAASGFTFGYYYISWVRQAPGKGLEWVAEISPYSGSTYYADSVKGRFTISADTSKNTAYLQMNSLRAEDTAVYYCALRARPPIRLHPRGSVMDYWGQGTLVTVSS VL: DIQMTQSPSSLSASVGDRVTITCRASQDVSTAVAWYQQKPGKAPKLLIYSASFLYSGVPSRFSGSGSGTDFTLTISSLQPEDFATYYCQQSYTTPPTFGQGTKVEIKR |  |  | Kd [2]: 170 pM; IC50, inhibition of signaling in Wnt3a-stimulated HEK293 cells (LRP6 on HEK293 cells): ~0.1 µg/ml and ~0.6 nM
10 | YW211.31.35 antibody (antibody, V domains shown) VH: EVQLVESGGGLVQPGGSLRLSCAASGFTFGFYYISWVRQAPGKGLEWVAEISPYSGSTYYADSVKGRFTISADTSKNTAYLQMNSLRAEDTAVYYCALRARPPIRLHPRGSVMDYWGQGTLVTVSS VL: DIQMTQSPSSLSASVGDRVTITCRASQDVSTAVAWYQQKPGKAPKLLIYSASFLYSGVPSRFSGSGSGTDFTLTISSLQPEDFATYYCQQSYTTPPTFGQGTKVEIKR |  |  | binding result [3]: binds
